Measured values reported in paper PMC11582070, “Template-assisted covalent modification underlies activity of covalent molecular glues” (Nature Chemical Biology, 2023).

Biological target: recombinant BRD4BD2 (residues 368-440) (human) (UniProt O60885)

Chain of GAK_(14–351)-HA (O14976 14-351): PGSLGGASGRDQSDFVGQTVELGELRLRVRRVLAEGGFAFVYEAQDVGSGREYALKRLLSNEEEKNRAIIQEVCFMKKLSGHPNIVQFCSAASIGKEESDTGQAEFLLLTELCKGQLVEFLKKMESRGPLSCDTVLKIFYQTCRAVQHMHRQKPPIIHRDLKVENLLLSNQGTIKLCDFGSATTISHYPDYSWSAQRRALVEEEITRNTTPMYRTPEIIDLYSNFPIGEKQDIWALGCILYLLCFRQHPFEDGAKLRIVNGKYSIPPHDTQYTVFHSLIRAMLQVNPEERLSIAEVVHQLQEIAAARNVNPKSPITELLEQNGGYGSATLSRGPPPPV

- intact protein mass spectrometry: MMH2 adduct on recombinant GAK 14-351 with BRD4BD2 present, 4 °C 16 h (approximately 2% without BRD4BD2): 22%
- intact protein mass spectrometry: TMX1 adduct on recombinant GAK 14-351 with BRD4BD2 present, 4 °C 16 h (none detectable without BRD4BD2): 5%
Substance: GAK_(14–351)-HA (from UniProt O14976 14-351) (domain or fragment)
